Experimental data taken from patent US7875275B2, “Use of Bridge-1 and activators and inhibitors thereof in the treatment of insulin deficiency and diabetes” (The General Hospital Corporation, priority 2004, dated 2011).
Blank lines part the entries; values can stand above or below the molecule they belong to.

Key:
[1] = biological target: T1, Bridge-1 (Gal4 DBD-Bridge-1) (Rattus norvegicus, UniProt Q9WTV5); test: Gal4-Bridge-1 transactivation assay in BHK cells (Gal4-luciferase reporter); assay type: cell-based
T1 construct: excision of full-length rat Bridge-1 cDNA from the previously reported Gal4-Bridge-1 (pM-Bridge-1) vector; expressed in transfected cells; host or cells: BHK cells (BHK-21 C-13), transient transfection
T1 sequence (Q9WTV5 with tags, fused parts or gaps): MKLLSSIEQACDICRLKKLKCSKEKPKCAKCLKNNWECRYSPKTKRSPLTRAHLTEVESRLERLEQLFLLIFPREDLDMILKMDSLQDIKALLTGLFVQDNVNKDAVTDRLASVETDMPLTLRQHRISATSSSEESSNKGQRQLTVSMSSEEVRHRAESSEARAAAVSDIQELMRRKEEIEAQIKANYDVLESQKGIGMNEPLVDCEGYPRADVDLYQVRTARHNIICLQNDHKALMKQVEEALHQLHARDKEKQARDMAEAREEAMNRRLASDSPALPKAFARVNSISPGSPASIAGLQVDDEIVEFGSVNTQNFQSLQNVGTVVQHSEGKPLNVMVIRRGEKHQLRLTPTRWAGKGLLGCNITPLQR
Protocol: FIG. 17 (a-d). The coactivator Bridge-1 interacts with multiple domains of p300. (a) Trichostatin A increases transcriptional activation by Bridge-1. BHK cells were transfected in duplicate with 1.5 μg Gal4-Bridge-1 or empty Gal4 expression vector, 3.25 μg pBluescript, and 250 ng of a Gal4-luciferase reporter and treated with vehicle (0), 2, or 4 ng/mL trichostatin A for 24 hours. Results shown are the mean+/−SEM relative luciferase activity of Gal4-Bridge-1 normalized to the empty Gal4 expression vector (n=3-5 transfections). (b) p300 increases the transcriptional activation by Bridge-1. BHK cells were transfected in duplicate with 0-3 μg of the p300 expression vector pCMV-p300 and 0.5 μg Gal4-Bridge-1 or empty Gal4 expression vector and 1 μg of a Gal4-CAT reporter. pBluescript was used to normalize the total DNA content for all conditions. Data shown are the mean of two transfections. (c) Bridge-1 directly interacts with p300. GST-Bridge-1 or GST control proteins were incubated with in vitro translated, radiolabeled [^35S]-p300 in GST protein interaction assays. A representative autoradiogram is shown of an SDS polyacrylamide gel from a GST pull-down protein interaction assay with the migration position of [^35S]-p300 designated (arrow). (d) Bridge-1 interacts with multiple domains within p300. […]
Various compounds were assayed for their ability to activate or inhibit Bridge-1 transactivation function. In these experiments, the transactivation assay previously described (Thomas, M. K. et al., Mol. Cell. Biol. 19(12):8492-8504 (1999)) incorporated herein by reference) was used with the modification that the plasmid reporter was a Gal4 luciferase reporter with luciferase activity measured rather than the Gal4CAT reporter used in 1999. […]
(§1) Cell culture and transfections. […] Transfections were conducted with Lipofectamine or Lipofectamine 2000 (Invitrogen Life Technologies) according to published methods (Thomas, M. K., et al., Molec. Cell. Biol. 19:8492-8504 (1999). Yeast transcriptional activation assays were conducted as previously reported (Thomas, M. K., et al., supra; Golemis, E. A., et al., Current Protocols in Molecular Biology, Ausubel, F. M., et al., eds., John Wiley and Sons, pp. 13.14.1-13.14.17 (1994)) with quantitative LexA-operator responsive beta-galactosidase reporter assays as outlined by the manufacturer (BD Biosciences Clontech, Palo Alto, Calif.).

[2] = biological target: T2, Gal4-Bridge-1 (UniProt P04386+Q9WTV5); test: Gal4-Bridge-1 transcriptional activation of Gal4-CAT reporter in BHK cells; assay type: cell-based, rat; conditions: 0-3 μg pCMV-p300 expression vector
T2 construct: excision of full-length rat Bridge-1 cDNA from the previously reported Gal4-Bridge-1 (pM-Bridge-1) vector; expressed in transfected cells; host or cells: BHK cells (BHK-21 C-13), transient transfection
T2 sequence (P04386+Q9WTV5 fused): as the sequence (Q9WTV5 with tags, fused parts or gaps) above
Protocol: FIG. 17 (a-d). The coactivator Bridge-1 interacts with multiple domains of p300. (a) Trichostatin A increases transcriptional activation by Bridge-1. BHK cells were transfected in duplicate with 1.5 μg Gal4-Bridge-1 or empty Gal4 expression vector, 3.25 μg pBluescript, and 250 ng of a Gal4-luciferase reporter and treated with vehicle (0), 2, or 4 ng/mL trichostatin A for 24 hours. Results shown are the mean+/−SEM relative luciferase activity of Gal4-Bridge-1 normalized to the empty Gal4 expression vector (n=3-5 transfections). (b) p300 increases the transcriptional activation by Bridge-1. […]
as §1

[3] = biological target: T3, PDX-1 Bait (Rattus norvegicus, UniProt P52947); test: Semiquantitative yeast two-hybrid interaction trap assay; assay type: binding; set-up: key: ++: growth on leucine dropout plates and intense blue colonies on X-gal plates; −: no growh on leucine dropout plates and white colonies on X-gal plates; conditions: LexA-rat PDX-1 amino acids 160-283 bait, LEU2 and lacZ reporters
T3 construct: A LexA-rat PDX-1 bait fusion protein construct consisting of PDX-1 amino acids 160-283 cloned in the vector pEG202; expressed in transfected cells
T3 sequence (P52947 160-283): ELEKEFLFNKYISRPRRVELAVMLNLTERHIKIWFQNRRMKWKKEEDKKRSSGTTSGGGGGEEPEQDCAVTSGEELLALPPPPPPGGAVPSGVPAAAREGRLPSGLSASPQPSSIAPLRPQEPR
Protocol: Yeast interaction trap assays. Semiquantitative yeast two-hybrid interaction trap assays were conducted as previously reported (Golemis et al., 1994; Thomas et al., 1999). A LexA-rat PDX-1 bait fusion protein construct consisting of PDX-1 amino acids 160-283 cloned in the vector pEG202 and an acidic domain-rat Bridge-1 fusion protein construct cloned in the vector pJG4-5 were independently tested for activation of LexA operator-responsive LEU2 or β-galactosidase (lacZ) reporters in yeast. Interactions of E12 with rat Twist and rat inhibitor of differentiation-3 (Id3) proteins were used as positive controls and interactions of Bridge-1 with the human interleukin-1 receptor or D. melanogaster bicoid proteins were used as negative controls for the assays (Thomas et al., 1999). Fusion protein interactions were measured independently by growth on leucine dropout plates as a measure of LEU reporter activation or by blue color intensity with growth for 72 hours at 30° C. on X-Gal (5-bromo-4-chloro-3-indoyl-β-D-galactopyranoside) plates as a measure of lacZ reporter activation.
We assessed whether Bridge-1 interacts with PDX-1 in a yeast two-hybrid interaction trap system. […] Thus the rat Bridge-1 protein interacts with a carboxy-terminal PDX-1 protein fragment in yeast cells.

[4] = Gal4-luciferase reporter, 24 hours incubation, vs vehicle

Molecule: p300: histone acetyltransferase and nuclear receptor coactivator, expressed from pCMV-p300 vector
increase of reporter activation by Gal4-Bridge-1 [2]: over 70 fold

Molecule: CC(=O)[C@H]1CC[C@H]2[C@@H]3CCC4=CC(=O)CC[C@]4(C)[C@H]3CC[C@]12C [Progesterone]
inhibition of Bridge-1 transactivation function [1, 4]: 22%

B2: Id3: rat inhibitor of differentiation-3 protein, control in yeast interaction trap assay (protein)
chain: MKALSPVRGCYEAVCCLSERSLAIARGRGKSPSAEEPLSLLDDMNHCYSRLRELVPGVPRGTQLSQVEILQRVIDYILDLQVVLAEPAPGPPDGPHLPIQTAELTPELVISKDKRSFCH
Interaction with PDX-1 Bait [3]: −

B3: Bridge-1: rat PDZ-domain transcriptional coactivator, acidic domain fusion in pJG4-5 (protein)
chain: MSSEEVRHRAESSEARAAAVSDIQELMRRKEEIEAQIKANYDVLESQKGIGMNEPLVDCEGYPRADVDLYQVRTARHNIICLQNDHKALMKQVEEALHQLHARDKEKQARDMAEAREEAMNRRLASDSPALPKAFARVNSISPGSPASIAGLQVDDEIVEFGSVNTQNFQSLQNVGTVVQHSEGKPLNVMVIRRGEKHQLRLTPTRWAGKGLLGCNITPLQR
modifications: left off: small tags and cut ends
Interaction with PDX-1 Bait [3]: ++

Continued, in another order:

activation of Bridge-1 transactivation function [1, 4]: 2.34 fold
Molecule: Activin A

activation of Bridge-1 transactivation function [1, 4]: 2.7 fold
Molecule: CC(/C=C/C(=O)NO)=C\[C@@H](C)C(=O)c1ccc(N(C)C)cc1 [Trichostatin A]
effect on transcriptional activation by Bridge-1 ([1]; 2 or 4 ng/mL for 24 hours): increased the transcriptional activation by Bridge-1 in a dose-dependent manner

Interaction with PDX-1 Bait [3]: −
B1: Twist: rat Twist protein, control in yeast interaction trap assay (protein)
chain: MMQDVSSSPVSPADDSLSNSEEEPDRQQPASGKRGARKRRSSRRSAGGSAGPGGATGGGIGGGDEPGSPAQGKRGKKSAGGGGGAGGGGGGGGSSSGGGSPQSYEELQTQRVMANVRERQRTQSLNEAFAALRKIIPTLPSDKLSKIQTLKLAARYIDFLYQVLQSDELDSKMASCSYVAHERLSYAFSVWRMEGAWSMSASH
